Results as given in paper PMC5431093, “A HAND to TBX5 Explains the Link Between Thalidomide and Cardiac Diseases” (Scientific Reports, 2017).
Like-named read-outs stand apart in the source and are kept apart here.

Key:
[1] = molecular target: HA-tagged TBX5 (murine Tbx5 isoform A) (mouse) (UniProt P70326); assay: co-IP; nuclear extracts of separately transfected HEK293 cells mixed (100 ug each), anti-HA on Protein A/G Dynabeads, 2 h, alone or with DMSO; blot with anti-Flag, re-blot with anti-HA
[2] = molecular target: HA-tagged TBX5 (murine Tbx5 isoform A) (mouse) (UniProt P70326); assay: as above; remark: listed apart in the source
[3] = molecular target: T1, HA-tagged TBX5 (murine Tbx5 isoform A) (mouse, UniProt P70326 1-518); assay: cell-based or functional assay
T1 sequence (looked up): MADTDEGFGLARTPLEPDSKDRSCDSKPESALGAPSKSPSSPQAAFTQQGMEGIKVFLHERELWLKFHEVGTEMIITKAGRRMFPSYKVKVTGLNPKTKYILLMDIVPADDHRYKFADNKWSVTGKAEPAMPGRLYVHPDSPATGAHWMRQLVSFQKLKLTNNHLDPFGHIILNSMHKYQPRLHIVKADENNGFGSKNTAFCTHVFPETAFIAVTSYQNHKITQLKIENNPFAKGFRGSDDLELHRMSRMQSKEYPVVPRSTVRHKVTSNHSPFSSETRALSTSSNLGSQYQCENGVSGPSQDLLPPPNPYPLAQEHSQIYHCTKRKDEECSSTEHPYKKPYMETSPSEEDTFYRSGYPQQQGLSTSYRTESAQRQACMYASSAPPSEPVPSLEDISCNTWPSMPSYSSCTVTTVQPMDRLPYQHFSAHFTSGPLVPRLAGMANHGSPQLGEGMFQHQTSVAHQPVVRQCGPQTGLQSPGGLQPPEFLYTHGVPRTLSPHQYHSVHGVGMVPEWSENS

Flag-tagged HAND2 p.G202V variant (from UniProt Q61039 1-217) (natural protein)
percent inhibition of the co-precipitation against wild-type HAND2 [1]: < 90%
percent inhibition of the co-precipitation against wild-type HAND2 [2]: < 80%

B1: Flag-tagged HAND2 wild type (natural protein, mouse, UniProt Q61039 1-217, looked up)
chain: MSLVGGFPHHPVVHHEGYPFAAAAAAAAAAAASRCSHEENPYFHGWLIGHPEMSPPDYSMALSYSPEYASGAAGLDHSHYGGVPPGAGPPGLGGPRPVKRRGTANRKERRRTQSINSAFAELRECIPNVPADTKLSKIKTLRLATSYIAYLMDLLAKDDQNGEAEAFKAEIKKTDVKEEKRKKELNEILKSTVSSNDKKTKGRTGWPQHVWALELKQ
synergistic activation of the rat NPPA promoter coupled to luciferase in HEK293 cells co-transfected with TBX5 and HAND2 [3]: ≤ 22 fold
